From publication PMC9347351 (2022) come the findings set out here.

One assay concerns the target L-pY peptide (phosphotyrosine (pY) at the fourth residue; 5-carboxyfluorescein on the N-terminus; C-terminal amide). The experiment in a line: ITC.
Another assay deals with T1, AS25 (synthetic construct (Homo sapiens …)).
T1 chain: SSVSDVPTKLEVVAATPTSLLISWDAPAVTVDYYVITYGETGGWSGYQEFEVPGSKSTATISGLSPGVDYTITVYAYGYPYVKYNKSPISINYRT
The assay can be described thus: ITC. On the technique in general: Isothermal titration calorimetry measures the heat released or taken up as one component is titrated into another.

B1: synthetic L-Bcr-Abl SH2 domain (domain or fragment)
chain: KKKKKSGVNSLEKHSWYHGPVSRNAAEYLLSSGINGSFLVRESESSPGQRSISLRYEGRVYHYRINTASDGKLYVSSESRFNTLAELVHHHSTVADGLITTLHYPAPKRNK
modifications: biotinylated (position of the biotin not stated in the text shown)
With B1, the dissociation constant (Kd) (in general, the equilibrium constant for the complex coming apart) was 4890 nM with L-pY peptide and 184 nM with AS25.
